According to patent US7906705B2:

Experiments:
[1] = substrate: O=P(O)(O)O[C@H]1O[C@H](CO)[C@@H](O)[C@H](O)[C@H]1O; assay: purified protein, by the assay type; conditions: other: UDP sugar synthesis direction, 2.5 mM UTP, substrate 0 to 5 mM, pH 7.5, 30° C.
[2] = substrate: O=P(O)(O)O[C@H]1O[C@H](CO)[C@H](O)[C@H](O)[C@H]1O; assay: purified protein, by the assay type; conditions: other: UDP sugar synthesis direction, 2.5 mM UTP, substrate 0 to 5 mM, pH 7.5, 30° C., E. coli expressed, partially purified
[3] = E. coli expressed, partially purified

B1: melon UGPase (UDP glucose pyrophosphorylase), SEQ ID NO: 35 (Cucumis melo) (protein)
chain: MASAATLSPADTEKLSKLKASVSGLTQISENEKSGFINLVSRYLSGEAQHVEWSKIQTPTDEVVVPYDSLAPVPNDPAETKKLLDKLVVLKLNGGLGTTMGCTGPKSVIEVRNGLTFLDLIVIQIENLNSKYGCNVPLLLMNSFNTHDDTQKIIEKYKGSNVDIHTFNQSQYPRLVAEDYLPLPSKGRTDKDGWYPPGHGDVFPSLKNSGKLDALIAQGKEYVFVANSDNLGAVVDLQILNHLIQNKNEYCMEVTPKTLADVKGGTLISYEGKVQLLEIAQVPDEHVNEFKSIQKFKIFNTNNLWVNLKAIKRLVEANALKMEIIPNPKEVDGIKVLQLETAAGAAIRFFDHAIGINVPRSRFLPVKATSDLLLVQSDLYTLVDGFVLRNKARKDPSNPSIELGPEFKKVGNFLSRFKSIPSIIELDSLKVVGDVSFGAGVVLKGKVTISAKPGTKLAVPDNAVIANKEINGPEDF
Question: How did the Km ([1]; ND = Not detected) turn out when B1 was run?
Answer: Its Km is 240 µM.

Question: And the Vmax ([1]; ND = Not detected)?
Answer: The Vmax was 238 μmol mg protein^−1min^−1.

B2: melon UGGPase (UDP-Gal/Glc pyrophosphorylase), SEQ ID NO: 33 (Cucumis melo) (protein)
chain: MASSLDSAALTLSNLSINGDFASSLPNLQKNLHLLSPQQVELAKILLELGQSHLFEHWAEPGVDDNEKKAFFDQVARLNSSYPGGLASYIKTARGLLADSKEGKNPFDGFTPSVPTGEVLTFGDDSFVSFEDRGVREARKAAFVLVAGGLGERLGYNGIKVALPAETTTGTCFLQSYIEYVLALREASNRLAGESETEIPFVIMTSDDTHTRTVELLESNSYFGMKPSQVKLLKQEKVACLDDNEARLAVDPHNKYRIQTKPHGHGDVHALLYSSGLLKNWHNAGLRWVLFFQDTNGLLFKAIPASLGVSATREYHVNSLAVPRKAKEAIGGITRLTHTDGRSMVINVEYNQLDPLLRATGFPDGDVNNETGYSPFPGNINQLILELGSYIEELSKTQGAIKEFVNPKYKDATKTSFKSSTRLECMMQDYPKTLPPSARVGFTVMDTWVAYAPVKNNPEDAAKVPKGNPYHSATSGEMAIYRANSLVLRKAGVKVADPVEQVFNGQEVEVWPRITWKPKWGLTFSEIKSKINGNCSISPRSTLVIKGKNVYLKDLSLDGTLIVNADEDAEVKVEGSVHNKGWTLEPVDYKDTSVPEEIRIRGFRINKIEQEERN
Question: Which results are given for B2?
Answer: Km [2]: 430 µM; Vmax [2]: 714 μmol mg protein^−1min^−1; Km [1, 3]: 270 µM; Vmax [1, 3]: 222 μmol mg protein^−1min^−1
